Measurements: patent publication US20250197882A1, “USE OF JAZ PROTEIN AND ITS DERIVATIVES IN AGRICULTURAL PEST PREVENTION AND CONTROL” (priority 2022, published 2025)

Columns and labels:
[1] = system: Sf9 ovarian cell line of Spodoptera frugiperda; format: cell-based
From the text: Using insect cell lines toxicity testing and mechanism of action research of insecticides, as a new detection method, has the advantages of good target homogeneity, easy control of experimental conditions, and low screening costs compared to traditional bioassay methods. It is suitable for toxicological research of insecticidally active substances. In recent years, scholars at home and abroad have conducted extensive research on the activity of plant natural active ingredients on insect cells, and have achieved many research results of the action mechanism of plant natural active ingredients on insect cells, showing a good correlation between experimental results and in vivo toxicity testing and field experiments.
Fluorescence staining experiment: toxic effect of GhJAZ protein on Sf9 cell line (CL-0205, Procell) was detected using a Calcein/PI Cell Viability and Cytotoxicity Detection kit (Catalogue No.: C2015L, Beyotime, China). The Calcein/PI Cell Activity and Cytotoxicity Detection Kit is a very convenient kit for detecting the viability of animal cells based on Calcein AM (Calcein AM) and PI (Propidium Iodide) dual fluorescence staining. The specific steps are as follows: Adherent cells were blown and transferred to a 15 mL EP tube, centrifuged at 860-870 rpm for 5 minutes. […] After 30 minutes of culture, fluorescence microscopy images were taken. […]

[2] = system: fall armyworm (Spodoptera frugiperda); experiment: Feed film-covering bioassay, larval growth inhibition, fall armyworm; format: in vivo; conditions: protein on artificial feed, after 7 days, FIGS. 6C, 6E
Description: (§1) Treatment group: add the prepared insect feed (Henan Jiyuan Baiyun Industrial Co., Ltd., product name: Grassland armyworm artificial feed) to a 24 well plate, with a volume of 200 microliters per well; use a film covering method to add diluted GhJAZ8 protein solutions of different concentrations (diluted with PBS) to the surface of the feed, and shake in the incubator until the protein is immersed in the culture medium. Take grassland armyworm and cotton bollworm larvae that have not been fed within the first 12 hours of incubation as experimental subjects, and place them in a culture box, with each concentration of protein applied to 100 larvae. Set 16 replicates for each protein concentration and 3 parallel measurement groups for each dose. Control group: different from the experimental group, PBS solution was added to the surface of the feed using a film covering method, and the rest were the same. After 7 days, age and weight will be recorded for statistical analysis. [formula]

[3] = system: cotton bollworm (Helicoverpa armigera); experiment: Feed film-covering bioassay, larval growth inhibition, cotton bollworm; format: in vivo; conditions: protein on artificial feed, after 7 days, FIGS. 6D, 6F
Description: as §1

SfAPN4 = experiment: Yeast two-hybrid (Y2H) interaction with SfAPN4; format: binding, Spodoptera frugiperda; conditions: Y2HGold yeast, quadruple dropout medium, FIG. 4B
SfAPN4, sequence (as listed by the source): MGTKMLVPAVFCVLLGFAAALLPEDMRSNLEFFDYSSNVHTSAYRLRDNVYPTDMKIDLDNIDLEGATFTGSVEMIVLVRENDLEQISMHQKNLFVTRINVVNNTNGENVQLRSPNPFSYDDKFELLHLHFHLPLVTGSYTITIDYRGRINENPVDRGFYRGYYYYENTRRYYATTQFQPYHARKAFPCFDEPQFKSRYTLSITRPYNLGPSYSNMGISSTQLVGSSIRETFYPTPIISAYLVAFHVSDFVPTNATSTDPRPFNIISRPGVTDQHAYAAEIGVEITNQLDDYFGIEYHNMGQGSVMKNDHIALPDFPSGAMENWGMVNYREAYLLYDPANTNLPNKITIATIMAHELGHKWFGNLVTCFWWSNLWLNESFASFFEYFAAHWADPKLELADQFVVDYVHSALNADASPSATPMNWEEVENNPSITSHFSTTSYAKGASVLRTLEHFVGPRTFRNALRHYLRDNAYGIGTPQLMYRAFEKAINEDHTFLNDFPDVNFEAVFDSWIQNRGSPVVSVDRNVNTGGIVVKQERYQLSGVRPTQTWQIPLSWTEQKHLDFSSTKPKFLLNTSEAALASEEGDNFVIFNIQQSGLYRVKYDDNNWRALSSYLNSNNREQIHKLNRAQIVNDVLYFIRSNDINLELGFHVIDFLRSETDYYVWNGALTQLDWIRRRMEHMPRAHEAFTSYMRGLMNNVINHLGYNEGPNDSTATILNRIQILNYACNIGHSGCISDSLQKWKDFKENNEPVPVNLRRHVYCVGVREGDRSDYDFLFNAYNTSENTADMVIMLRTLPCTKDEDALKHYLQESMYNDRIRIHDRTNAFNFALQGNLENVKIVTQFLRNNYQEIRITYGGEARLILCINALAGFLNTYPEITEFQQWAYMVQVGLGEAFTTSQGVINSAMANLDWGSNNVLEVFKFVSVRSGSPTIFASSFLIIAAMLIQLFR
From the text: DNA fragments shown in PGADT7::GhJAZ8 (SEQ ID No. 3), PGADT7::GhJAZ8^LGK (SEQ ID No. 25), PGADT7::GhJAZ13 (SEQ ID No. 8), PGADT7::GhJAZ14 (SEQ ID No. 10), PGADT7::GhJAZ24 (SEQ ID No. 12), PGADT7::GhJAZ27 (SEQ ID No. 14) and PGADT7::GhJAZ28 (SEQ ID No. 16) were inserted between the BamH1 and EcoR1 of a PGADT7 plasmid (Unibio Biotech, VT1639), respectively, to obtain pGADT7+GhJAZ8, pGADT7+GhJAZ8^LGK, pGADT7+GhJAZ13, pGADT7+GhJAZ14, pGADT7+GhJAZ24, pGADT7+GhJAZ27 and pGADT7+GhJAZ28.
The DNA fragment shown in PGBKT7: SfAPN4 (SEQ ID NO: 22) was inserted between BamH1 and EcoR1 of a pGBKT7 plasmid (Unibio Biotech, catalog number: VT1638), to obtain a vector plasmid, named pGBKT7+SfAPN4.
The mixture was centrifuged at 5000 rpm for 30 seconds to discard the supernatant, and the pellet was resuspended in ddH2O, coated on a double dropout medium (SD/-Leu/-Trp) and cultured at 28° C. for 2 days. After occurrence of the clonal plaques, the clones were selected and placed a quadruple dropout medium (SD Ade/-His/-Leu/-Trp, with Aba and X-α-gal added) and the interaction was observed after 4 days of culture at 28° C.

Molecule | cytotoxicity on Sf9 cells [1] | growth inhibition of fall armyworm larvae [2] | growth inhibition of cotton bollworm larvae [3] | interaction with SfAPN4 (Y2H) (SfAPN4)
GhJAZ5: cotton JAZ protein, SEQ ID NO: 1, expressed in E. coli from pET-30a-GhJAZ5 (protein) MSSCSESTAMKPARSPEKPSFAQTCNLLSQYLKEKGSFGDLSLGMTCNVEANGTPVVPPPTMNLFPLNDKSDDVCGRNGGNPKNLTSMDLFPQQAGLASKDDSPNKLEPQTAPMTIFYGGQVIVFNDFPANKAKEIMLLASNSSSQSNNSFNPIPFTSSIARSPIESSIGVPPTSKPVHPAQRAVPGDLPIARRASLHRFLEKRKDRITAKAPYQINNSAAAPSLSGDNKSWLGLAAQSP | certain cytotoxic effects |  |  | 
GhJAZ8^LGK: GhJAZ8 with NGR domain mutated, N43G44R45 to L43G44K45, coding sequence SEQ ID No. 25 (protein) MRRNCNLELRLLPSSYPSDSHDMMEERIESPKTQQQQLTIFYLGKVCVSDVTELQAKAILMLANRERDERMKSPTGWEPVSPTLKSQVKCPNTALSMKRSLQRFLQKRKTRIQATSPYH |  | weakened | weakened | loses interaction
GhJAZ16: cotton JAZ protein, SEQ ID NO: 5, expressed from pET-30a-GhJAZ16 (protein) MERDFIGLRSKNAAITIKVEPSNAQPDDSVLLRGSGMQLSFSNKVSTVPQFLSFDGARDDKPRKATHDTLLSSGFMTIPAADSNKKPHPGLTQKQGGNHYAATTYGLQQLDGHQSRLSHEARIFPSSSQPNHTITVSMNTPLLQPHLASPGQNIIGHTINPQPFTGVPIMAAPVSVVPPSSPIIGTTDLRNAAKSSRAPAQLTIFYAGSVCVYDDVSPDKAQAIMLLAGNVSSTTQSKTAPVTQPQTHIPRPCTLSPFSGLPNHLSVTSHVSLQPVAGSSGTNELTAATRIGALASTNNQPDPPKLVNPAVAVPQARKASLARFLEKRKERVSNTSPYNICKRSESGPLASDGISFSVTSAGSSPLQAIN | certain cytotoxic effects |  |  | 
